These results are taken from article PMC10397247.

Common to all, as to test: two-hybrid library CCNG1;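 further: natural log of median RNA to DNA barcode read ratio; higher means stronger binding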
One assay concerns the target T1, P4mSN.
T1 chain: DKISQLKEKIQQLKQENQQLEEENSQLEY

The next assay addresses T2, 4H906-bN.
T2 chain: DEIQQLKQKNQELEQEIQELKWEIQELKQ

Another assay deals with T3, 4H3638-bH.
T3 chain: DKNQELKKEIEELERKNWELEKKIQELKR

The target in a further assay is T4, 4H619-bH.
T4 chain: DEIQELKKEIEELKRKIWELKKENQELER

The next assay has as its target T5, 4H906-bH.
T5 chain: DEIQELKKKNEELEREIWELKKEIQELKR

For the next assay, the target named is T6, 4H3631-bH.
T6 chain: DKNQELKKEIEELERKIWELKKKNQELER

Another assay concerns the target T7, 4H1985-bH.
T7 chain: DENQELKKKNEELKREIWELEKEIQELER

The target in a further assay is T8, 4H1804-bH.
T8 chain: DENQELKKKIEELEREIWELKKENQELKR

Another assay concerns the target T9, 4H570-bH.
T9 chain: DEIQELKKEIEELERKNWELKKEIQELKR

For a further assay, the target named is T10, 4H850-bH.
T10 chain: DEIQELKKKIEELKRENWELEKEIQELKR

The next assay addresses T11, 4H584-bH.
T11 chain: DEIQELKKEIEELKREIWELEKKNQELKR

For a further assay, the target named is T12, 4H3817-bH.
T12 chain: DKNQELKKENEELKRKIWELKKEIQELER

A further assay concerns the target T13, 4H3172-bH.
T13 chain: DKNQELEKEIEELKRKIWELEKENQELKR

The target of a further assay is T14, 4H3974-bH.
T14 chain: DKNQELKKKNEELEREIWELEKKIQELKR

For the next assay, the target named is T15, 4H3414-bH.
T15 chain: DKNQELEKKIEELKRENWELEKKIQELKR

A further assay deals with T16, 4H3129-bH.
T16 chain: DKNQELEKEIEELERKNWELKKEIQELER

Another assay has as its target T17, P5mSN.
T17 chain: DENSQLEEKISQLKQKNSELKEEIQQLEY

The target of a further assay is T18, P8mSN.
T18 chain: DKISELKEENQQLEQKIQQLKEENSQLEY

For the next assay, the target named is T19, P7mSN.
T19 chain: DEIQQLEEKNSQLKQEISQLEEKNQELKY

For another assay, the target named is T20, P9mSN.
T20 chain: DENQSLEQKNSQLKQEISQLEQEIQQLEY

The next assay has as its target T21, P6mSN.
T21 chain: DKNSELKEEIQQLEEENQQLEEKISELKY

For the next assay, the target named is T22, 4H570-bA.
T22 chain: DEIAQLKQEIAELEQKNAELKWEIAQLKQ

The target of a further assay is T23, 4H850-bA.
T23 chain: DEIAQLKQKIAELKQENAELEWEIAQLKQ

The next assay has as its target T24, 4H3129-bA.
T24 chain: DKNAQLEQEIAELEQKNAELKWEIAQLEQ

A further assay deals with T25, 4H3172-bA.
T25 chain: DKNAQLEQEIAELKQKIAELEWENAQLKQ

For a further assay, the target named is T26, 4H584-bA.
T26 chain: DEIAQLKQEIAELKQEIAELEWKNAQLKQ

The next assay concerns the target T27, 4H3974-bA.
T27 chain: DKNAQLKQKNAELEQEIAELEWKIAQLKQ

A further assay concerns the target T28, 4H1985-bA.
T28 chain: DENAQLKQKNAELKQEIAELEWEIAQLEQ

The next assay deals with T29, 4H3414-bA.
T29 chain: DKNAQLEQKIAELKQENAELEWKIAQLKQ

Another assay deals with T30, 4H906-bA.
T30 chain: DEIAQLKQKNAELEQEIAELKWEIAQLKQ

For the next assay, the target named is T31, 4H3817-bA.
T31 chain: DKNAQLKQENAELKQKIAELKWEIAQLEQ

The target of a further assay is T32, 4H619-bA.
T32 chain: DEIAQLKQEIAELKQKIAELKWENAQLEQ

The target in a further assay is T33, 4H3631-bA.
T33 chain: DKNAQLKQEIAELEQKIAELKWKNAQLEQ

For a further assay, the target named is T34, 4H3638-bA.
T34 chain: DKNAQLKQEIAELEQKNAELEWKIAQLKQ

In the next assay the target is T35, 4H1804-bA.
T35 chain: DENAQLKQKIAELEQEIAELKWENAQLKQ

The target of the next assay is T36, 4H3628-bH.
T36 chain: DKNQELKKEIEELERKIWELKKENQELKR

Another assay has as its target T37, 4H3381-bH.
T37 chain: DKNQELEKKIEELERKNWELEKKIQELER

In a further assay the target is T38, 4H3613-bH.
T38 chain: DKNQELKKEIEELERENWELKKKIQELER

In another assay the target is T39, 4H3162-bH.
T39 chain: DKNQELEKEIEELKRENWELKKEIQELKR

A further assay concerns the target T40, 4H3277-bH.
T40 chain: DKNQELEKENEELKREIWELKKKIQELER

The next assay has as its target T41, 4H3462-bH.
T41 chain: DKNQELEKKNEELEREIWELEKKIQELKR

A further assay concerns the target T42, 4H591-bH.
T42 chain: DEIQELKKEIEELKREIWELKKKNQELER

The target in another assay is T43, 4H3298-bH.
T43 chain: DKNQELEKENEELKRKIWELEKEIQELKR

Another assay deals with T44, 4H1710-bH.
T44 chain: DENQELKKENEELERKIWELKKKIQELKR

In the next assay the target is T45, 4H3175-bH.
T45 chain: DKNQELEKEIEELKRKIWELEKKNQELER

In a further assay the target is T46, 4H626-bH.
T46 chain: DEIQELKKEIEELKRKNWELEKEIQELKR

The target in another assay is T47, 4H3497-bH.
T47 chain: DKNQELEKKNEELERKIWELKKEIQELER

A further assay concerns the target T48, 4H3858-bH.
T48 chain: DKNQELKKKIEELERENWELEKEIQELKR

A further assay has as its target T49, 4H3926-bH.
T49 chain: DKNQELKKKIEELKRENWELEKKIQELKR

The target in another assay is T50, 4H1899-bH.
T50 chain: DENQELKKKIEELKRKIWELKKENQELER

As to DEIQQLKQKNQELEQEIQELKWEIQELKQ [4H906-bN], the interaction score was -1.42 with P4mSN and -0.198 with 4H906-bN.
As for DENQELKKKIEELEREIWELKKENQELKR [4H1804-bH], the interaction score with 4H3638-bH is -0.512; with 4H619-bH, -0.693; with 4H906-bH, -0.842; with 4H3631-bH, -0.276; in the assay with 4H1985-bH it was 0.0377; with 4H1804-bH it was 0.525. Moreover, the interaction score was -0.192 in the assay with 4H570-bH; -0.238 in the assay with 4H850-bH; 0.198 with 4H584-bH; -0.0504 in the assay with 4H3817-bH; -0.154 with 4H3172-bH; -0.359 with 4H3974-bH. Further, the figures for the interaction score with 4H3414-bH and with 4H3129-bH were -0.0322 and -0.437, respectively.
Turning to DKISQLKEKIQQLKQENQQLEEENSQLEY [P4mSN], the interaction score was -1.42 in the assay with P5mSN; -1.76 with P4mSN; -1.53 with P8mSN; -1.04 with P7mSN; -1.07 with P9mSN; -0.838 with P6mSN.
With DENAQLKQKIAELEQEIAELKWENAQLKQ [4H1804-bA], the interaction score in the assay with 4H570-bA is -0.765; with 4H850-bA, -0.531; with 4H3129-bA, 0.386; with 4H3172-bA, -0.016; with 4H584-bA it was -0.489; with 4H3974-bA it was -0.32. In addition, the interaction score is -0.729 with 4H1985-bA; -0.0712 in the assay with 4H3414-bA; -0.55 in the assay with 4H906-bA; -0.0173 in the assay with 4H3817-bA; -1.65 with 4H619-bA; 0.394 with 4H3631-bA. Further, the interaction score was -0.376 in the assay with 4H3638-bA and 0.9 with 4H1804-bA.
Consider DENQELKKENEELERKIWELKKKIQELKR [4H1710-bH], for which the interaction score with 4H3638-bH was -0.567; in the assay with 4H3628-bH, 1.35; with 4H619-bH, 0.404; with 4H3381-bH, -1.3; with 4H906-bH it was -0.745; with 4H3613-bH, -0.955. Besides, the interaction score in the assay with 4H3162-bH is -0.655; with 4H3631-bH, 0.643; with 4H1985-bH it was 0.219; with 4H3277-bH it was 0.846; with 4H1804-bH, -0.929; with 4H3462-bH it was 0.869. The interaction score in the assay with 4H591-bH is -1.94; with 4H570-bH, -0.481; with 4H3298-bH it was -0.00934; with 4H1710-bH, 0.661; with 4H850-bH, 0.221; in the assay with 4H584-bH, 0.848. The interaction score turned out to be 0.823 in the assay with 4H3817-bH; 0.358 in the assay with 4H3172-bH; 0.0594 with 4H3175-bH; 0.887 with 4H3974-bH; 0.853 with 4H626-bH; 0.794 in the assay with 4H3497-bH. For the same molecule, the interaction score was -0.238 with 4H3858-bH; -0.234 with 4H3414-bH; 0.806 with 4H3926-bH; 0.26 with 4H1899-bH; 0.0138 with 4H3129-bH.
